According to doi:10.1101/2021.05.24.445390 (bioRxiv, 2021):

Target: Tetanus neurotoxin (TeNT) (Clostridium tetani strain Y-IV-3 (WS …, UniProt P04958))
Assay: SPR

Chain of Tetanus neurotoxin (TeNT) (Clostridium tetani strain Y-IV-3 (P04958 1-457, chain 1 of 2): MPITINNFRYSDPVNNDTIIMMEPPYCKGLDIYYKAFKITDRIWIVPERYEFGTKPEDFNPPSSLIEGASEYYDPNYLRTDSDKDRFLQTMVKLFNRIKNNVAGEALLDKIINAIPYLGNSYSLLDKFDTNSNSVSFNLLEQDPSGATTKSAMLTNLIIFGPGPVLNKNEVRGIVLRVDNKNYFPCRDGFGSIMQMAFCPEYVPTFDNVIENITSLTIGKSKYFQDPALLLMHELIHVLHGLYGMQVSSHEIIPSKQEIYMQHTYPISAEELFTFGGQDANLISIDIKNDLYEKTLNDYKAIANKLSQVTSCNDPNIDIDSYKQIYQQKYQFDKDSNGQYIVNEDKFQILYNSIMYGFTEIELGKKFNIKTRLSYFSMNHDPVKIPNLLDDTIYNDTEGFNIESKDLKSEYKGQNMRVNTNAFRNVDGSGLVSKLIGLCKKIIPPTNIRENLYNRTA
Chain of Tetanus neurotoxin (TeNT) (Clostridium tetani strain Y-IV-3 (P04958 458-1315, chain 2 of 2): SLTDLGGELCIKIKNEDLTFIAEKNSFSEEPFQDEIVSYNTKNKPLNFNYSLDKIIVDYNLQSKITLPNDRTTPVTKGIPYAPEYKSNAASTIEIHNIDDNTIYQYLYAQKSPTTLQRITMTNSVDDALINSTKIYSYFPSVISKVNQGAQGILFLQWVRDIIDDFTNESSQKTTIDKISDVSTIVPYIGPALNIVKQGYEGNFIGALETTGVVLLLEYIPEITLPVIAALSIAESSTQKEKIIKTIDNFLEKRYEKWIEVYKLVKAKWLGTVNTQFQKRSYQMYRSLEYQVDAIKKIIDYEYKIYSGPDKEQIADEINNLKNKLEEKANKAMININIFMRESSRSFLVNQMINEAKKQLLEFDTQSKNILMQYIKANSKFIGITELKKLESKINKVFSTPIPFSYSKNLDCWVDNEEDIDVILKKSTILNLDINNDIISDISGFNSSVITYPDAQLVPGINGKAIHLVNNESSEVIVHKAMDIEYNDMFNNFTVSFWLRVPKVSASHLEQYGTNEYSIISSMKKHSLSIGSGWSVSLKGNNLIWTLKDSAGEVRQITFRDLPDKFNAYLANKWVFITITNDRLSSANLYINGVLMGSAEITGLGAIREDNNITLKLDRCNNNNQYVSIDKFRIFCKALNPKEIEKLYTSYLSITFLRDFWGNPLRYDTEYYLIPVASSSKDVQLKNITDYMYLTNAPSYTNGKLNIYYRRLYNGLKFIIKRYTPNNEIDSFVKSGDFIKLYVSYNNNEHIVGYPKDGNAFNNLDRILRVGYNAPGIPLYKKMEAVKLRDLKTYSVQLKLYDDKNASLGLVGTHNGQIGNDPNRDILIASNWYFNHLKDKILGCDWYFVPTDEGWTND

Binder	Kd
TT104-Fab (Fab, V domains shown) VH: QLQLQESGPGLVRPSETLSLTCSVSDDSMGSSTYYWAWIRQPPGKGLEWIGNVYYNGVTYYNSSLESRLTLSIDPSKNQFSLILSSVTAADTAVYYCARQADNWFDPWGQGTLVTVSS VL: IMMTQSPATLSVSPGERATLSCRASQSVGSDLAWYQQKPGQAPRLLIYGASYRATGIPARFSGGGSGTEFTLTISSMQSEDFAVYYCQQYYNWPPYTFGQGTKVEIK	0.0067 nM
TT110-Fab (Fab, V domains shown) VH: QVQLMQSGAEVQKPGASVKVSCQASGFTLNNYYIHWLRQAPGQGFEWMGIFNPSSGTRTYAQKFQGRISMTADASTTTLYMELSGLTSEDAGVYFCARIGGSTYGRLMTYYFDHWGQGTVVAVSS VL: VLTQGPVTLSVSPGGRGTLSCRASRSISTTLAWYQQKPGQAPRLLIYGASTRATGIPARFTGSGSGTEFTLTISSLQSEDFAVYYCQQYNDWPVTFGQGTQVEVK	3 nM
